Experimental findings from paper PMC11186044, “Rationally Engineering pH Adaptation of Acid‐Induced Arginine Decarboxylase from Escherichia coli to Alkaline Environments to Efficiently Biosynthesize Putrescine” (Advanced Science, 2024) are described below.

Data set [1] has as its target T1, SpeB (Escherichia coli, UniProt P60651).
T1 construct: agmatinase; construct and assay details only in supplement
T1 sequence (P60651 1-306): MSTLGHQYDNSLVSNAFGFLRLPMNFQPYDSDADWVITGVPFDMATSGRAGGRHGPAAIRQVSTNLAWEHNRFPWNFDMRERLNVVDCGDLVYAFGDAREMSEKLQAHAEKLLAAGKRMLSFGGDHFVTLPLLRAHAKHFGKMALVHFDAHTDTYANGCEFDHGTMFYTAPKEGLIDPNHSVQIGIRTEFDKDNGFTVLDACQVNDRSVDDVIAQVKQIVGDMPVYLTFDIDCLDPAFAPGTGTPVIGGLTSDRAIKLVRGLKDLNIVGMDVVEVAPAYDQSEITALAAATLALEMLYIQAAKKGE
Description: agmatinase activity versus pH (details in supplement). The format is biochemical. The settings on record: alkaline pH preferred; enzyme preparation not given.

Substrate in data set [2]: N=C(N)NCCC[C@H](N)C(=O)O
The experiment in a line: agmatine formation by HPLC, Michaelis-Menten fit. It is filed as biochemical, Escherichia coli. Particulars: pH 7.0, 37 °C, 0.5 mmol·L^−1 PLP, 2.5 mmol·L^−1 MgSO4, 5 mmol·L^−1 DTT. The source says: agmatine formation by HPLC, Michaelis-Menten fit on AdiA

For `N=C(N)NCCCCN` [agmatine], in data set [1], the “agmatinase activity versus pH (details in supplement)” value is given as “SpeB, agmatinase that catalyzes the synthesis of putrescine from agmatine”.

B1: AdiA (Escherichia coli K-12) (protein)
chain: MKVLIVESEFLHQDTWVGNAVERLADALSQQNVTVIKSTSFDDGFAILSSNEAIDCLMFSYQMEHPDEHQNVRQLIGKLHERQQNVPVFLLGDREKALAAMDRDLLELVDEFAWILEDTADFIAGRAVAAMTRYRQQLLPPLFSALMKYSDIHEYSWAAPGHQGGVGFTKTPAGRFYHDYYGENLFRTDMGIERTSLGSLLDHTGAFGESEKYAARVFGADRSWSVVVGTSGSNRTIMQACMTDNDVVVVDRNCHKSIEQGLMLTGAKPVYMVPSRNRYGIIGPIYPQEMQPETLQKKISESPLTKDKAGQKPSYCVVTNCTYDGVCYNAKEAQDLLEKTSDRLHFDEAWYGYARFNPIYADHYAMRGEPGDHNGPTVFATHSTHKLLNALSQASYIHVREGRGAINFSRFNQAYMMHATTSPLYAICASNDVAVSMMDGNSGLSLTQEVIDEAVDFRQAMARLYKEFTADGSWFFKPWNKEVVTDPQTGKTYDFADAPTKLLTTVQDCWVMHPGESWHGFKDIPDNWSMLDPIKVSILAPGMGEDGELEETGVPAALVTAWLGRHGIVPTRTTDFQIMFLFSMGVTRGKWGTLVNTLCSFKRHYDANTPLAQVMPELVEQYPDTYANMGIHDLGDTMFAWLKENNPGARLNEAYSGLPVAEVTPREAYNAIVDNNVELVSIENLPGRIAANSVIPYPPGIPMLLSGENFGDKNSPQVSYLRSLQSWDHHFPGFEHETEGTEIIDGIYHVMCVKA
notes: recombinant full-length acid-induced arginine decarboxylase; homodecamer (five dimers) with PLP; plasmids in supplement
B1: in data set [2], the Km – broadly, the substrate concentration at which the rate is half of its maximum – worked out at 12.08 ± 0.86 mM; the kcat (usually the number of substrate molecules converted per active site and unit of time at saturation) came to 3.54 ± 0.28 s⁻¹; the kcat/Km (commonly the second-order rate constant that governs catalysis at low substrate concentration) was 290 M⁻¹ s⁻¹.

B2: AdiA (Escherichia coli K-12; E467K) (protein)
chain: MKVLIVESEFLHQDTWVGNAVERLADALSQQNVTVIKSTSFDDGFAILSSNEAIDCLMFSYQMEHPDEHQNVRQLIGKLHERQQNVPVFLLGDREKALAAMDRDLLELVDEFAWILEDTADFIAGRAVAAMTRYRQQLLPPLFSALMKYSDIHEYSWAAPGHQGGVGFTKTPAGRFYHDYYGENLFRTDMGIERTSLGSLLDHTGAFGESEKYAARVFGADRSWSVVVGTSGSNRTIMQACMTDNDVVVVDRNCHKSIEQGLMLTGAKPVYMVPSRNRYGIIGPIYPQEMQPETLQKKISESPLTKDKAGQKPSYCVVTNCTYDGVCYNAKEAQDLLEKTSDRLHFDEAWYGYARFNPIYADHYAMRGEPGDHNGPTVFATHSTHKLLNALSQASYIHVREGRGAINFSRFNQAYMMHATTSPLYAICASNDVAVSMMDGNSGLSLTQEVIDEAVDFRQAMARLYKKFTADGSWFFKPWNKEVVTDPQTGKTYDFADAPTKLLTTVQDCWVMHPGESWHGFKDIPDNWSMLDPIKVSILAPGMGEDGELEETGVPAALVTAWLGRHGIVPTRTTDFQIMFLFSMGVTRGKWGTLVNTLCSFKRHYDANTPLAQVMPELVEQYPDTYANMGIHDLGDTMFAWLKENNPGARLNEAYSGLPVAEVTPREAYNAIVDNNVELVSIENLPGRIAANSVIPYPPGIPMLLSGENFGDKNSPQVSYLRSLQSWDHHFPGFEHETEGTEIIDGIYHVMCVKA
notes: as for B1
For the molecule B2, in data set [2], the Km is 14.30 ± 0.64 mM, the kcat was 15.2 ± 0.23 s⁻¹ and the kcat/Km was 1060 M⁻¹ s⁻¹.

B3: AdiA (Escherichia coli K-12; E467K/H736E) (protein)
chain: MKVLIVESEFLHQDTWVGNAVERLADALSQQNVTVIKSTSFDDGFAILSSNEAIDCLMFSYQMEHPDEHQNVRQLIGKLHERQQNVPVFLLGDREKALAAMDRDLLELVDEFAWILEDTADFIAGRAVAAMTRYRQQLLPPLFSALMKYSDIHEYSWAAPGHQGGVGFTKTPAGRFYHDYYGENLFRTDMGIERTSLGSLLDHTGAFGESEKYAARVFGADRSWSVVVGTSGSNRTIMQACMTDNDVVVVDRNCHKSIEQGLMLTGAKPVYMVPSRNRYGIIGPIYPQEMQPETLQKKISESPLTKDKAGQKPSYCVVTNCTYDGVCYNAKEAQDLLEKTSDRLHFDEAWYGYARFNPIYADHYAMRGEPGDHNGPTVFATHSTHKLLNALSQASYIHVREGRGAINFSRFNQAYMMHATTSPLYAICASNDVAVSMMDGNSGLSLTQEVIDEAVDFRQAMARLYKKFTADGSWFFKPWNKEVVTDPQTGKTYDFADAPTKLLTTVQDCWVMHPGESWHGFKDIPDNWSMLDPIKVSILAPGMGEDGELEETGVPAALVTAWLGRHGIVPTRTTDFQIMFLFSMGVTRGKWGTLVNTLCSFKRHYDANTPLAQVMPELVEQYPDTYANMGIHDLGDTMFAWLKENNPGARLNEAYSGLPVAEVTPREAYNAIVDNNVELVSIENLPGRIAANSVIPYPPGIPMLLSGENFGDKNSPQVSYLRSLQSWDHHFPGFEEETEGTEIIDGIYHVMCVKA
notes: as for B1
For B3, in data set [2], the Km was found to be 15.70 ± 0.87 mM, the kcat was found to be 29.2 ± 0.44 s⁻¹ and the kcat/Km is 1860 M⁻¹ s⁻¹.

B4: AdiA (Escherichia coli K-12; H736E) (protein)
chain: MKVLIVESEFLHQDTWVGNAVERLADALSQQNVTVIKSTSFDDGFAILSSNEAIDCLMFSYQMEHPDEHQNVRQLIGKLHERQQNVPVFLLGDREKALAAMDRDLLELVDEFAWILEDTADFIAGRAVAAMTRYRQQLLPPLFSALMKYSDIHEYSWAAPGHQGGVGFTKTPAGRFYHDYYGENLFRTDMGIERTSLGSLLDHTGAFGESEKYAARVFGADRSWSVVVGTSGSNRTIMQACMTDNDVVVVDRNCHKSIEQGLMLTGAKPVYMVPSRNRYGIIGPIYPQEMQPETLQKKISESPLTKDKAGQKPSYCVVTNCTYDGVCYNAKEAQDLLEKTSDRLHFDEAWYGYARFNPIYADHYAMRGEPGDHNGPTVFATHSTHKLLNALSQASYIHVREGRGAINFSRFNQAYMMHATTSPLYAICASNDVAVSMMDGNSGLSLTQEVIDEAVDFRQAMARLYKEFTADGSWFFKPWNKEVVTDPQTGKTYDFADAPTKLLTTVQDCWVMHPGESWHGFKDIPDNWSMLDPIKVSILAPGMGEDGELEETGVPAALVTAWLGRHGIVPTRTTDFQIMFLFSMGVTRGKWGTLVNTLCSFKRHYDANTPLAQVMPELVEQYPDTYANMGIHDLGDTMFAWLKENNPGARLNEAYSGLPVAEVTPREAYNAIVDNNVELVSIENLPGRIAANSVIPYPPGIPMLLSGENFGDKNSPQVSYLRSLQSWDHHFPGFEEETEGTEIIDGIYHVMCVKA
notes: as for B1
For B4, in data set [2], the Km turned out to be 15.27 ± 0.79 mM, the kcat was 17.5 ± 0.55 s⁻¹ and the kcat/Km turned out to be 1150 M⁻¹ s⁻¹.
